We go through 1 molecule from patent publication US20250109201A1 (AGENUS, published 2025).

For assay [1], the target named is full-length ILT2 expressed on Jurkat cells (human, UniProt Q8NHL6 24-650). The assay is described as follows: cell-based or functional assay.
In assay [2] the target is T1, ECD-His tagged human ILT2 haplotype PE01 (human, UniProt Q8NHL6 24-458).
T1 construct: also called Human ILT2 PE01 ECD; LILRB1/ILT2 PE01; not shown: His tag
The assay is described as follows: SPR, LILRA and LILRB family panel. An excerpt: (§1) Irrelevant antibody VRC01 IgG1 N297A was used as a negative isotype control.

Assay [3] concerns the target T2, recombinant human LILRA3/ILT6 (Sino Biological 13549-H08H-100) (human, UniProt Q8N6C8 24-439).
T2 construct: Bought
The assay is described as follows: SPR, LILRA and LILRB family panel.
From the text: as §1

For assay [4], the target named is T3, recombinant human LILRA1/LIR-6 (Sino Biological 17220-H08H-100) (human, UniProt O75019 17-461).
T3 construct: Bought
T3 sequence (O75019 17-461 limits assumed): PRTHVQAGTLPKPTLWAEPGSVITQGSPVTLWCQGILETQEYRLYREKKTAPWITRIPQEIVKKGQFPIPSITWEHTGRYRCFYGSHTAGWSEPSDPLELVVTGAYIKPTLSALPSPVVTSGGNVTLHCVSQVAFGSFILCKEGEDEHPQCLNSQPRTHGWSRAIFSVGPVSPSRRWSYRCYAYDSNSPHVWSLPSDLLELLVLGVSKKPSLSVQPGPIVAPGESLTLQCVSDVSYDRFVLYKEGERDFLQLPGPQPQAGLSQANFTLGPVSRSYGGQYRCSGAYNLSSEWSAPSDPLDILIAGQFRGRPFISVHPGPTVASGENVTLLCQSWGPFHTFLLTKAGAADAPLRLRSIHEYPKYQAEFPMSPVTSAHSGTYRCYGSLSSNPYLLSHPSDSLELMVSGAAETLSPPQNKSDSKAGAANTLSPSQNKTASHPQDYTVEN
The assay is described as follows: SPR, LILRA and LILRB family panel.
From the text: as §1
Background: In SPR one partner is held on a chip, and binding of the other changes the refractive index at the surface.

In assay [5] the target is T4, human ILT2 extracellular and transmembrane domains expressed on CHO cells (human, UniProt Q8NHL6 24-482, limits assumed).
T4 construct: domain: extracellular and transmembrane domains; which one is told under assay; also called CHO cells expressing human ILT2 (relatively low or relatively high level); CHO-ILT2 cells
T4 sequence (Q8NHL6 24-482 limits assumed): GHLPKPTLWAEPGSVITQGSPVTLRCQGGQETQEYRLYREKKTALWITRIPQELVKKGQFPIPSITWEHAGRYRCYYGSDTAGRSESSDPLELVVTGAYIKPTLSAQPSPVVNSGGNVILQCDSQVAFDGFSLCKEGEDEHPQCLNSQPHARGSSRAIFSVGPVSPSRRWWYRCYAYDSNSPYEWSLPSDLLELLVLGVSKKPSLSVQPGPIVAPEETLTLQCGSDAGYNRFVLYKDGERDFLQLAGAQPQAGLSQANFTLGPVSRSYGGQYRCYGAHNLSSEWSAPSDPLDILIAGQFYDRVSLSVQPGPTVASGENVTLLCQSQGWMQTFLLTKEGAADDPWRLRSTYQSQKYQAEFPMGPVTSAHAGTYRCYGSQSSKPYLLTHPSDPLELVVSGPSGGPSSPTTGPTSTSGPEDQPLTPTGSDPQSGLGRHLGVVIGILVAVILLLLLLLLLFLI
The assay is described as follows: flow cytometry, CHO cells with low human ILT2. The procedure: (§2) CHO cells expressing relatively high and low levels of human ILT2 were seeded in a 96-well U-bottom tissue culture plate at a density of 2×10⁵ cells per well in 50 μL of PBS supplemented with 0.5% BSA, 1 mM EDTA and 0.05% sodium azide (FACS Buffer). The cells were incubated for 30 minutes at 4° C. with 50 μL of a series dilution of anti-ILT2 antibodies or isotype control (VRC01 IgG₄) at concentrations from 10 μg/mL to 0.2 ng/mL in FACS Buffer.
(§3) For antibody staining, the cells were washed three times with cold FACS Buffer and resuspended in FACS Buffer containing a FITC-conjugated mouse anti-human IgG₄ antibody (Southern Biotech/9190-02) at a final concentration of […]. After a 30-minute incubation in the dark at 4° C., the cells were washed three times and analyzed as above.
For orientation: Flow cytometry measures light scatter and fluorescence of single cells or particles in a stream.

Assay [6] addresses T4, human ILT2 extracellular and …. The assay is described as follows: flow cytometry, CHO cells with high human ILT2. The procedure: as §2, §3
Assay [7] concerns the target T5, recombinant human LILRA4/ILT7 (Sino Biological 16058-H08H-50) (human, UniProt P59901 24-446).
T5 construct: Bought
The assay is described as follows: SPR.
From the text: as §1

Assay [8] deals with T6, recombinant human LILRB4/ILT3 (Sino Biological 16742-H08H) (human, UniProt Q8NHJ6 22-259).
T6 construct: Bought
The assay is described as follows: SPR.
From the text: as §1

The target of assay [9] is T7, recombinant human LILRB3/ILT5 (R&D Systems 9159-T5-050) (human, UniProt O75022 24-443).
T7 construct: Bought
The assay is described as follows: SPR.
From the text: as §1

Assay [10] has as its target T8, recombinant human LILRA2/ILT1 (R&D Systems 9040-T4-050) (human, UniProt Q8N149 24-449).
T8 construct: Bought
The assay is described as follows: SPR.
From the text: as §1

Assay [11] has as its target T9, recombinant human LILRA6/ILT8 (Sino Biological 29813-H08H-50) (human, UniProt Q6PI73 24-447).
T9 construct: Bought
The assay is described as follows: SPR.
From the text: as §1

Assay [12] deals with T10, recombinant human LILRA5/ILT11 (Sino Biological 16059-H08H-100) (human, UniProt A6NI73 42-268).
T10 construct: Bought
T10 sequence (A6NI73 42-268 limits assumed): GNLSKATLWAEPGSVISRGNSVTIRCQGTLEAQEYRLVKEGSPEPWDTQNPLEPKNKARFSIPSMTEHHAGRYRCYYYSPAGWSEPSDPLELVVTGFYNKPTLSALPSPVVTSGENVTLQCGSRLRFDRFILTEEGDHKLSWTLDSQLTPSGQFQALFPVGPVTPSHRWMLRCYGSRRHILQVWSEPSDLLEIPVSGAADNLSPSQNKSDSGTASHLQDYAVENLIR
The assay is described as follows: SPR.
From the text: as §1

Assay [13] has as its target T11, recombinant human LILRB5/LIR-8 (Sino Biological 17221-H08H-100) (human, UniProt O75023 24-458).
T11 construct: Bought
The assay is described as follows: SPR.
From the text: as §1

T11 sequence (O75023 24-458 limits assumed): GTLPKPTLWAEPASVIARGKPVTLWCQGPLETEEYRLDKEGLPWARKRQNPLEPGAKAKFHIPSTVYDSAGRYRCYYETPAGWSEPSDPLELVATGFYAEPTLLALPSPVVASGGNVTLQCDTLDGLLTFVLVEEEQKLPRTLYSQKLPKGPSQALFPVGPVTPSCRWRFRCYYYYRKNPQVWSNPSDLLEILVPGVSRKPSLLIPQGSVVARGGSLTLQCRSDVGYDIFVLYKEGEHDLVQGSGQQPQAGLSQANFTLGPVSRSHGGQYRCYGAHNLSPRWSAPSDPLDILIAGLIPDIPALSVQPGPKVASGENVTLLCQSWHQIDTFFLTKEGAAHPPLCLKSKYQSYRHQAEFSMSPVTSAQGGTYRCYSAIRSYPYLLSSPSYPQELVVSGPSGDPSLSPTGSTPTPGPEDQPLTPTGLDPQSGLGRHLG
T2 sequence (Q8N6C8 24-439 limits assumed): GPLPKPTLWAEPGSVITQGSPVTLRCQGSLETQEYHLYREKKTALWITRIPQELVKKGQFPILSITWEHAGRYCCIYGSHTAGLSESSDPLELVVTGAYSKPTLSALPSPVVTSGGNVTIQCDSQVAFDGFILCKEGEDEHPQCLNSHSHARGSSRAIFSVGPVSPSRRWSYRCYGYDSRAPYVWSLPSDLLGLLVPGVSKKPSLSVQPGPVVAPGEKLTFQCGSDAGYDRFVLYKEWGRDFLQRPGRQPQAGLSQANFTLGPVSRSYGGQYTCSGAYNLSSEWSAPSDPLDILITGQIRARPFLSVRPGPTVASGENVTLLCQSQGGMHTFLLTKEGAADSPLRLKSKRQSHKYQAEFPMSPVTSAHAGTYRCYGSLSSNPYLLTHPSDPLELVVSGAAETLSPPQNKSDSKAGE
Chain of full-length ILT2 expressed on Jurkat cells (Q8NHL6 24-650): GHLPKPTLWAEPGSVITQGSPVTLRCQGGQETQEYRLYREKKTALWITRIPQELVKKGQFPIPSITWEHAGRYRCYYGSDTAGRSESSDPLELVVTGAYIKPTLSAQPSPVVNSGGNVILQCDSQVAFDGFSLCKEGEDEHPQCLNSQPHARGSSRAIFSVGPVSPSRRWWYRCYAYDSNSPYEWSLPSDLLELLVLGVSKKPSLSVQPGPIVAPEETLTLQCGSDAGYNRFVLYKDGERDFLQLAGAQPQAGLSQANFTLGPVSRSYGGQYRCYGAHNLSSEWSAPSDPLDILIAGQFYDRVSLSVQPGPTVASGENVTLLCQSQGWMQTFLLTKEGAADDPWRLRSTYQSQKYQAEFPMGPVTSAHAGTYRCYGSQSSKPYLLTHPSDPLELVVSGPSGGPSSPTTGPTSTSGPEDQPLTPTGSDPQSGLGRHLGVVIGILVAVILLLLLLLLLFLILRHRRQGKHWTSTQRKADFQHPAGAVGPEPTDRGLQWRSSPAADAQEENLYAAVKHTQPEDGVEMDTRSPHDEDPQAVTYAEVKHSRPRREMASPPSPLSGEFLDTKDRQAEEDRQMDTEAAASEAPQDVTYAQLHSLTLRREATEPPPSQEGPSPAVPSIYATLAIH
T1 sequence (Q8NHL6 24-458): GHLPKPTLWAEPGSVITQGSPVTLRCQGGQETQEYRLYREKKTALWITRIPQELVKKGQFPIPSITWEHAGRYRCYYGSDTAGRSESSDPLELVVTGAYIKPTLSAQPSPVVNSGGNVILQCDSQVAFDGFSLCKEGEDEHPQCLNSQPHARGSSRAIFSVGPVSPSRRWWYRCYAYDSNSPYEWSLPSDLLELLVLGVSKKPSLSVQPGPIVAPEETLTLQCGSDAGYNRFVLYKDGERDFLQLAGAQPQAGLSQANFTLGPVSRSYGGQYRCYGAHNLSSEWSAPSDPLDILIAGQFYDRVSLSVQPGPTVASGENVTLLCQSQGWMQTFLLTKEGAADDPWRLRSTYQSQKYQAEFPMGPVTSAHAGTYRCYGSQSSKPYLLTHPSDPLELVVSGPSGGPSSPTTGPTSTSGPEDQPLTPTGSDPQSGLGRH
T8 sequence (Q8N149 24-449 limits assumed): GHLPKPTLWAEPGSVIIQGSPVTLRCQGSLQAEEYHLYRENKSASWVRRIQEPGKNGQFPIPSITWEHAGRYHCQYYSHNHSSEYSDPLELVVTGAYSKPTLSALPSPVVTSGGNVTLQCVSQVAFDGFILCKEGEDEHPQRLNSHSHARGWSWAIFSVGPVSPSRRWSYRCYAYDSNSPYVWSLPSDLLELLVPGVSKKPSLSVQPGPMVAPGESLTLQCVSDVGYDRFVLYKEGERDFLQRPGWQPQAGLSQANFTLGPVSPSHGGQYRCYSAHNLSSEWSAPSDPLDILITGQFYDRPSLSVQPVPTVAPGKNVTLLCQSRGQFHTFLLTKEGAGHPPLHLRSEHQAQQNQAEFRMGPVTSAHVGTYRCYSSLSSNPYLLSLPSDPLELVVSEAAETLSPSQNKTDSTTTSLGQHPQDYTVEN
T5 sequence (P59901 24-446 limits assumed): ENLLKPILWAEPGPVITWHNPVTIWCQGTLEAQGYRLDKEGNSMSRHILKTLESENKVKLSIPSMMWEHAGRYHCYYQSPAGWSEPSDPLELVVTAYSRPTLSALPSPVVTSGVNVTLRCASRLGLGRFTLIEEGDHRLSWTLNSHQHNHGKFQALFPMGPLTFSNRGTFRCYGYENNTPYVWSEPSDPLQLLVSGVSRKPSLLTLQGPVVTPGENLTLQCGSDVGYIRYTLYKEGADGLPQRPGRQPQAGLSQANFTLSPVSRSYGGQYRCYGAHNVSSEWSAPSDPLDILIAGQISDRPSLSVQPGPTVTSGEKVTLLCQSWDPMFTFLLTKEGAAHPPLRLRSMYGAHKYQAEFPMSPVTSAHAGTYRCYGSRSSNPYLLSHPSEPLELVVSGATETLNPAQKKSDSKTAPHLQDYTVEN
T9 sequence (Q6PI73 24-447 limits assumed): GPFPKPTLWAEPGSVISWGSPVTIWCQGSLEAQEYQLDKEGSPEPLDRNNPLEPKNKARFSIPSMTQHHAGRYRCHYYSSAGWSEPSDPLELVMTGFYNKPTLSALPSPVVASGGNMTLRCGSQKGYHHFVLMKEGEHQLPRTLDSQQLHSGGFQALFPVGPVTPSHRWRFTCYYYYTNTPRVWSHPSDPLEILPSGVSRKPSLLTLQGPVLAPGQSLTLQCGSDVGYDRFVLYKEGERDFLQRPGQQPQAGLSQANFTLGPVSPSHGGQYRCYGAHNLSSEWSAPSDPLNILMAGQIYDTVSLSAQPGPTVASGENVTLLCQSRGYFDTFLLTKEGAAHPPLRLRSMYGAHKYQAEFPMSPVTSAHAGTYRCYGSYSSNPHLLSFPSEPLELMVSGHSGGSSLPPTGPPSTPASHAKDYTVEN

B1: 15G8 (Reference antibody) (antibody, V domains shown)
VH: DVQLQGSGPGLVKPSETLSLTCSVTGYSITSGYYWNWIRQFPGKKLEWMGYISYDGSNNYNPSLKNRITISRDTSKNQFSLKLNSVTAADTATYYCAHGYSYYYAMDAWGQGTSVTVSS
VL: DIQMTQSPSSLSASVGDRVTITCRTSQDISNYLNWYQQKPGKAVKLLISYTSRLHSGVPSRFSGSGSGTDYTLTISSLQPEDFATYYCQQGNTLPTFGQGTKLEIK
As for B1, the “FcγRIIIa-NFAT luciferase signaling, EC50” value in assay [1] is 0.43 µg/mL. Moreover, the Kd (as a rule, the constant that tells how readily two partners part at equilibrium) amounted to 10 nM in [2], 24 nM in assay [3] and 21 nM in assay [4]. In addition, the EC50 – broadly, the concentration that produces a half-maximal response – in assay [5] is 0.019 µg/mL; in [6], 0.155 µg/mL. The binding result in assay [7], in assay [8], in [9], in [10], in assay [11] and in [12] was “no binding” each time. In addition, the binding result in assay [13] is “no binding”.
